Experimental data from US20210230570.

Target: Factor X (FX), P00742
Sequence (P00742 whole entry, looked up): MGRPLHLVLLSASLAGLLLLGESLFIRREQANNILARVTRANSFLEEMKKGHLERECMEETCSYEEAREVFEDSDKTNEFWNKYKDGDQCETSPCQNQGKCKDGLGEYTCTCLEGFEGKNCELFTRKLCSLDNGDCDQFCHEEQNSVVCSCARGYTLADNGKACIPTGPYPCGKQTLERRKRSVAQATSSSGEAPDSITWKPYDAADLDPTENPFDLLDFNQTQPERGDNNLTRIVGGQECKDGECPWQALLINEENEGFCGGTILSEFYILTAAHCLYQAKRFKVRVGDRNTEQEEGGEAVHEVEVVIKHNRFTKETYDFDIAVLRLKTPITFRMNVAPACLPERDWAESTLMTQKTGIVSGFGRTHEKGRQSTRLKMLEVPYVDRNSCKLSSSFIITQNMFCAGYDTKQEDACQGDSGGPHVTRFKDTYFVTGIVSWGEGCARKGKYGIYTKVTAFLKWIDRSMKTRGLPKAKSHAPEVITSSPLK

| Protein | kcat | kcat/KM |
| --- | --- | --- |
| FIXa-Y155F/K247N/N249S/R318Y/R338E (protein) chain 1: YNSGKLEEFVQGNLERECMEEKCSFEEAREVFENTERTTEFWKQYVDGDQCESNPCLNGGSCKDDINSYECWCPFGFEGKNCELDVTCNIKNGRCEQFCKNSADNKVVCSCTEGYRLAENQKSCEPAVPFPCGRVSVSQTSKLTR chain 2: VVGGEDAKPGQFPWQVVLNGKVDAFCGGSIVNEKWIVTAAHCVETGVKITVVAGEHNIEETEHTEQNRSVIRIIPHHNYNAAINKYNHDIALLELDEPLVLNSYVTPICIADKEYTNIFLKFGSGYVSGWGRVFHKGYSALVLQYLRVPLVDRATCLESTKFTIYNNMFCAGFHEGGRDSCQGDSGGPHVTEVEGTSFLTGIISWGEECAMKGKYGIYTKVSRYVNWIKEKTKLT | 7.5 s⁻¹ |  |
| FIXa-Y155F/K247N/N249S/R338E/T343R (protein) chain 1: YNSGKLEEFVQGNLERECMEEKCSFEEAREVFENTERTTEFWKQYVDGDQCESNPCLNGGSCKDDINSYECWCPFGFEGKNCELDVTCNIKNGRCEQFCKNSADNKVVCSCTEGYRLAENQKSCEPAVPFPCGRVSVSQTSKLTR chain 2: VVGGEDAKPGQFPWQVVLNGKVDAFCGGSIVNEKWIVTAAHCVETGVKITVVAGEHNIEETEHTEQNRSVIRIIPHHNYNAAINKYNHDIALLELDEPLVLNSYVTPICIADKEYTNIFLKFGSGYVSGWGRVFHKGRSALVLQYLRVPLVDRATCLESTKFRIYNNMFCAGFHEGGRDSCQGDSGGPHVTEVEGTSFLTGIISWGEECAMKGKYGIYTKVSRYVNWIKEKTKLT | 10.6 s⁻¹ | 7.3e+08 M⁻¹ s⁻¹ |
| FIXa-Y155F/K247N/N249S/R338E/E410N (protein) chain 1: YNSGKLEEFVQGNLERECMEEKCSFEEAREVFENTERTTEFWKQYVDGDQCESNPCLNGGSCKDDINSYECWCPFGFEGKNCELDVTCNIKNGRCEQFCKNSADNKVVCSCTEGYRLAENQKSCEPAVPFPCGRVSVSQTSKLTR chain 2: VVGGEDAKPGQFPWQVVLNGKVDAFCGGSIVNEKWIVTAAHCVETGVKITVVAGEHNIEETEHTEQNRSVIRIIPHHNYNAAINKYNHDIALLELDEPLVLNSYVTPICIADKEYTNIFLKFGSGYVSGWGRVFHKGRSALVLQYLRVPLVDRATCLESTKFTIYNNMFCAGFHEGGRDSCQGDSGGPHVTEVEGTSFLTGIISWGEECAMKGKYGIYTKVSRYVNWIKNKTKLT | 7.3 s⁻¹ | 4.7e+08 M⁻¹ s⁻¹ |
| FIXa-Y155F/K247N/N249S/R318Y/R338E/T343R/E410N (protein) chain 1: YNSGKLEEFVQGNLERECMEEKCSFEEAREVFENTERTTEFWKQYVDGDQCESNPCLNGGSCKDDINSYECWCPFGFEGKNCELDVTCNIKNGRCEQFCKNSADNKVVCSCTEGYRLAENQKSCEPAVPFPCGRVSVSQTSKLTR chain 2: VVGGEDAKPGQFPWQVVLNGKVDAFCGGSIVNEKWIVTAAHCVETGVKITVVAGEHNIEETEHTEQNRSVIRIIPHHNYNAAINKYNHDIALLELDEPLVLNSYVTPICIADKEYTNIFLKFGSGYVSGWGRVFHKGYSALVLQYLRVPLVDRATCLESTKFRIYNNMFCAGFHEGGRDSCQGDSGGPHVTEVEGTSFLTGIISWGEECAMKGKYGIYTKVSRYVNWIKNKTKLT | 7.7 s⁻¹ | 5e+08 M⁻¹ s⁻¹ |
| FIXa-K247N/N249S/R318Y/T343R/R403E (protein) chain 1: YNSGKLEEFVQGNLERECMEEKCSFEEAREVFENTERTTEFWKQYVDGDQCESNPCLNGGSCKDDINSYECWCPFGFEGKNCELDVTCNIKNGRCEQFCKNSADNKVVCSCTEGYRLAENQKSCEPAVPFPCGRVSVSQTSKLTR chain 2: VVGGEDAKPGQFPWQVVLNGKVDAFCGGSIVNEKWIVTAAHCVETGVKITVVAGEHNIEETEHTEQNRSVIRIIPHHNYNAAINKYNHDIALLELDEPLVLNSYVTPICIADKEYTNIFLKFGSGYVSGWGRVFHKGYSALVLQYLRVPLVDRATCLRSTKFRIYNNMFCAGFHEGGRDSCQGDSGGPHVTEVEGTSFLTGIISWGEECAMKGKYGIYTKVSEYVNWIKEKTKLT | 3.7 s⁻¹ | 3.9e+07 M⁻¹ s⁻¹ |
| FIXa-Y155F/K247N/N249S/R318Y/E410N (protein) chain 1: YNSGKLEEFVQGNLERECMEEKCSFEEAREVFENTERTTEFWKQYVDGDQCESNPCLNGGSCKDDINSYECWCPFGFEGKNCELDVTCNIKNGRCEQFCKNSADNKVVCSCTEGYRLAENQKSCEPAVPFPCGRVSVSQTSKLTR chain 2: VVGGEDAKPGQFPWQVVLNGKVDAFCGGSIVNEKWIVTAAHCVETGVKITVVAGEHNIEETEHTEQNRSVIRIIPHHNYNAAINKYNHDIALLELDEPLVLNSYVTPICIADKEYTNIFLKFGSGYVSGWGRVFHKGYSALVLQYLRVPLVDRATCLRSTKFTIYNNMFCAGFHEGGRDSCQGDSGGPHVTEVEGTSFLTGIISWGEECAMKGKYGIYTKVSRYVNWIKNKTKLT | 3.4 s⁻¹ |  |
| FIXa-Y155F/K247N/N249S/R318Y/T343R/R403E (protein) chain 1: YNSGKLEEFVQGNLERECMEEKCSFEEAREVFENTERTTEFWKQYVDGDQCESNPCLNGGSCKDDINSYECWCPFGFEGKNCELDVTCNIKNGRCEQFCKNSADNKVVCSCTEGYRLAENQKSCEPAVPFPCGRVSVSQTSKLTR chain 2: VVGGEDAKPGQFPWQVVLNGKVDAFCGGSIVNEKWIVTAAHCVETGVKITVVAGEHNIEETEHTEQNRSVIRIIPHHNYNAAINKYNHDIALLELDEPLVLNSYVTPICIADKEYTNIFLKFGSGYVSGWGRVFHKGYSALVLQYLRVPLVDRATCLRSTKFRIYNNMFCAGFHEGGRDSCQGDSGGPHVTEVEGTSFLTGIISWGEECAMKGKYGIYTKVSEYVNWIKEKTKLT | 7.5 s⁻¹ | 1.3e+08 M⁻¹ s⁻¹ |
| FIXa-K247N/N249S/R318Y/R338E/T343R/E410N (protein) chain 1: YNSGKLEEFVQGNLERECMEEKCSFEEAREVFENTERTTEFWKQYVDGDQCESNPCLNGGSCKDDINSYECWCPFGFEGKNCELDVTCNIKNGRCEQFCKNSADNKVVCSCTEGYRLAENQKSCEPAVPFPCGRVSVSQTSKLTR chain 2: VVGGEDAKPGQFPWQVVLNGKVDAFCGGSIVNEKWIVTAAHCVETGVKITVVAGEHNIEETEHTEQNRSVIRIIPHHNYNAAINKYNHDIALLELDEPLVLNSYVTPICIADKEYTNIFLKFGSGYVSGWGRVFHKGYSALVLQYLRVPLVDRATCLESTKFRIYNNMFCAGFHEGGRDSCQGDSGGPHVTEVEGTSFLTGIISWGEECAMKGKYGIYTKVSRYVNWIKNKTKLT | 8.8 s⁻¹ | 3.2e+08 M⁻¹ s⁻¹ |
| FIXa-Y155F/K247N/N249S/R318Y/R403E (protein) chain 1: YNSGKLEEFVQGNLERECMEEKCSFEEAREVFENTERTTEFWKQYVDGDQCESNPCLNGGSCKDDINSYECWCPFGFEGKNCELDVTCNIKNGRCEQFCKNSADNKVVCSCTEGYRLAENQKSCEPAVPFPCGRVSVSQTSKLTR chain 2: VVGGEDAKPGQFPWQVVLNGKVDAFCGGSIVNEKWIVTAAHCVETGVKITVVAGEHNIEETEHTEQNRSVIRIIPHHNYNAAINKYNHDIALLELDEPLVLNSYVTPICIADKEYTNIFLKFGSGYVSGWGRVFHKGYSALVLQYLRVPLVDRATCLRSTKFTIYNNMFCAGFHEGGRDSCQGDSGGPHVTEVEGTSFLTGIISWGEECAMKGKYGIYTKVSEYVNWIKEKTKLT | 1.7 s⁻¹ |  |
| FIXa-Y155F/K247N/N249S/R338E/R403E (protein) chain 1: YNSGKLEEFVQGNLERECMEEKCSFEEAREVFENTERTTEFWKQYVDGDQCESNPCLNGGSCKDDINSYECWCPFGFEGKNCELDVTCNIKNGRCEQFCKNSADNKVVCSCTEGYRLAENQKSCEPAVPFPCGRVSVSQTSKLTR chain 2: VVGGEDAKPGQFPWQVVLNGKVDAFCGGSIVNEKWIVTAAHCVETGVKITVVAGEHNIEETEHTEQNRSVIRIIPHHNYNAAINKYNHDIALLELDEPLVLNSYVTPICIADKEYTNIFLKFGSGYVSGWGRVFHKGRSALVLQYLRVPLVDRATCLESTKFTIYNNMFCAGFHEGGRDSCQGDSGGPHVTEVEGTSFLTGIISWGEECAMKGKYGIYTKVSEYVNWIKEKTKLT | 5.3 s⁻¹ | 1.4e+08 M⁻¹ s⁻¹ |
| FIXa-K247N/N249S/R318Y/T343R/R403E/E410N (protein) chain 1: YNSGKLEEFVQGNLERECMEEKCSFEEAREVFENTERTTEFWKQYVDGDQCESNPCLNGGSCKDDINSYECWCPFGFEGKNCELDVTCNIKNGRCEQFCKNSADNKVVCSCTEGYRLAENQKSCEPAVPFPCGRVSVSQTSKLTR chain 2: VVGGEDAKPGQFPWQVVLNGKVDAFCGGSIVNEKWIVTAAHCVETGVKITVVAGEHNIEETEHTEQNRSVIRIIPHHNYNAAINKYNHDIALLELDEPLVLNSYVTPICIADKEYTNIFLKFGSGYVSGWGRVFHKGYSALVLQYLRVPLVDRATCLRSTKFRIYNNMFCAGFHEGGRDSCQGDSGGPHVTEVEGTSFLTGIISWGEECAMKGKYGIYTKVSEYVNWIKNKTKLT | 9.5 s⁻¹ | 1.3e+08 M⁻¹ s⁻¹ |
| FIXa-Y155F/K247N/N249S/R318Y/T343R/R403E/E410N (protein) chain 1: YNSGKLEEFVQGNLERECMEEKCSFEEAREVFENTERTTEFWKQYVDGDQCESNPCLNGGSCKDDINSYECWCPFGFEGKNCELDVTCNIKNGRCEQFCKNSADNKVVCSCTEGYRLAENQKSCEPAVPFPCGRVSVSQTSKLTR chain 2: VVGGEDAKPGQFPWQVVLNGKVDAFCGGSIVNEKWIVTAAHCVETGVKITVVAGEHNIEETEHTEQNRSVIRIIPHHNYNAAINKYNHDIALLELDEPLVLNSYVTPICIADKEYTNIFLKFGSGYVSGWGRVFHKGYSALVLQYLRVPLVDRATCLRSTKFRIYNNMFCAGFHEGGRDSCQGDSGGPHVTEVEGTSFLTGIISWGEECAMKGKYGIYTKVSEYVNWIKNKTKLT | 9 s⁻¹ | 1.6e+08 M⁻¹ s⁻¹ |
| FIXa-Y155F/K247N/N249S/R318Y/T343R/E410N (protein) chain 1: YNSGKLEEFVQGNLERECMEEKCSFEEAREVFENTERTTEFWKQYVDGDQCESNPCLNGGSCKDDINSYECWCPFGFEGKNCELDVTCNIKNGRCEQFCKNSADNKVVCSCTEGYRLAENQKSCEPAVPFPCGRVSVSQTSKLTR chain 2: VVGGEDAKPGQFPWQVVLNGKVDAFCGGSIVNEKWIVTAAHCVETGVKITVVAGEHNIEETEHTEQNRSVIRIIPHHNYNAAINKYNHDIALLELDEPLVLNSYVTPICIADKEYTNIFLKFGSGYVSGWGRVFHKGYSALVLQYLRVPLVDRATCLRSTKFRIYNNMFCAGFHEGGRDSCQGDSGGPHVTEVEGTSFLTGIISWGEECAMKGKYGIYTKVSRYVNWIKNKTKLT | 8.1 s⁻¹ | 3.1e+08 M⁻¹ s⁻¹ |
| FIXa-Y155F/K247N/N249S/R318Y/T343R (protein) chain 1: YNSGKLEEFVQGNLERECMEEKCSFEEAREVFENTERTTEFWKQYVDGDQCESNPCLNGGSCKDDINSYECWCPFGFEGKNCELDVTCNIKNGRCEQFCKNSADNKVVCSCTEGYRLAENQKSCEPAVPFPCGRVSVSQTSKLTR chain 2: VVGGEDAKPGQFPWQVVLNGKVDAFCGGSIVNEKWIVTAAHCVETGVKITVVAGEHNIEETEHTEQNRSVIRIIPHHNYNAAINKYNHDIALLELDEPLVLNSYVTPICIADKEYTNIFLKFGSGYVSGWGRVFHKGYSALVLQYLRVPLVDRATCLRSTKFRIYNNMFCAGFHEGGRDSCQGDSGGPHVTEVEGTSFLTGIISWGEECAMKGKYGIYTKVSRYVNWIKEKTKLT | 10.3 s⁻¹ |  |
